Data reported in publication PMC6904361, “Vitamin D Receptor Inhibits NLRP3 Activation by Impeding Its BRCC3-Mediated Deubiquitination” (Frontiers in Immunology, 2019).

Target: T1, His-NLRP3 (human, UniProt Q96P20 1-1036)
T1 construct: human NLRP3 cloned into pET28a; The methods name only His-NLRP3; also called His-NLRP3-Flag; pET28a-His-NLRP3; source: E. coli (pET28a), IPTG-induced; called purified in the legend
Experiment: pull-down; GST or GST-VDR with His-NLRP3, pulled down on Glutathione MagBeads, immunoblot; incubation 2 h or overnight at 4 °C on a rotator (methods)
Details: both partners purified

T1 sequence (Q96P20 whole entry): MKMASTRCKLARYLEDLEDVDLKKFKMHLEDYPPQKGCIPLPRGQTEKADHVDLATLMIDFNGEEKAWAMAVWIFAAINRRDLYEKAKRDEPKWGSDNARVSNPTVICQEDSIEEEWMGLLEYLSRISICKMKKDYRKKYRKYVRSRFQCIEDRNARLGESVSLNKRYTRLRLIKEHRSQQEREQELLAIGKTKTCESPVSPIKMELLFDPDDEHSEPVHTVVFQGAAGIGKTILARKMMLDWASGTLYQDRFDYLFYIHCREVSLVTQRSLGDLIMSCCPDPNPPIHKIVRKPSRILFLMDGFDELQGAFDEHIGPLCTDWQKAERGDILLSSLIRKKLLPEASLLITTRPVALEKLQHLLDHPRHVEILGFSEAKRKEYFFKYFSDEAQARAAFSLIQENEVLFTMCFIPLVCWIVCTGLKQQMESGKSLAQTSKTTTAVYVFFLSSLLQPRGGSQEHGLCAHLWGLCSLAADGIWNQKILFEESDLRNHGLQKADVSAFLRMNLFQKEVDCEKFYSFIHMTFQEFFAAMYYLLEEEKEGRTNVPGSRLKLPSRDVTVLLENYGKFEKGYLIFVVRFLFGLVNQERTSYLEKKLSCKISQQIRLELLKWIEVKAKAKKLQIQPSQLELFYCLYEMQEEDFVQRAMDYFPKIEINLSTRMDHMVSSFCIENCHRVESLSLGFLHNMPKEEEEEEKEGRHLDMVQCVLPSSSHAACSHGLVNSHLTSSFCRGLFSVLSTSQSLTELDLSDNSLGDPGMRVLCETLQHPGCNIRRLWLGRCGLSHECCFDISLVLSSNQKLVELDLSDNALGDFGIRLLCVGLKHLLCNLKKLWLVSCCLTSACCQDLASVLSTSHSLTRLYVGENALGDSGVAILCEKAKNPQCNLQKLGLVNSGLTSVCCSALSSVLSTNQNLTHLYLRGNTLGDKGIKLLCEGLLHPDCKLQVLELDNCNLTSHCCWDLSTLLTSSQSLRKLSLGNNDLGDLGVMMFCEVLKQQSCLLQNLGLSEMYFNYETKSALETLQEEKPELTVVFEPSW

binding result: binds
B1: GST-human VDR (natural protein, UniProt P11473 1-427, looked up)
chain: MEAMAASTSLPDPGDFDRNVPRICGVCGDRATGFHFNAMTCEGCKGFFRRSMKRKALFTCPFNGDCRITKDNRRHCQACRLKRCVDIGMMKEFILTDEEVQRKREMILKRKEEEALKDSLRPKLSEEQQRIIAILLDAHHKTYDPTYSDFCQFRPPVRVNDGGGSHPSRPNSRHTPSFSGDSSSSCSDHCITSSDMMDSSSFSNLDLSEEDSDDPSVTLELSQLSMLPHLADLVSYSIQKVIGFAKMIPGFRDLTSEDQIVLLKSSAIEVIMLRSNESFTMDDMSWTCGNQDYKYRVSDVTKAGHSLELIEPLIKFQVGLKKLNLHEEEHVLLMAICIVSPDRPGVQDAALIEAIQDRLSNTLQTYIRCRHPPPGSHLLYAKMIQKLADLRSLNEEHSKQYRCLSFQPECSMKLTPLVLEVFGNEIS
notes: human vitamin D receptor in pGEX-6P1; also called GST-VDR; pGEX6p-1-GST-VDR; source: E. coli BL21(DE3), IPTG-induced; called purified in the legend
